Test results from patent US20240360228A1 (BIOLEGEND, published 2024).
Numbering of substitutions follows the chain as printed.

B1: AB5 (antibody, V domains shown)
VH: QVQLKESGPGLVQPSQTLSLTCTVSGFSLTSYHVSWVRQPPGKGLEWMGVIWTGGSTTYNSLLKSRLSISRDISKSQVFLKMNSLQTEDTATYYCARGGTVVKGGFAYWGQGTLVTVSS
VL: DIQMTQSPASLSASLEEIVTITCQASQDIGNRLSWYQQKPGKSPQLLIYGATSLADGVPSRFSGSRSGTQYSLKISRLQVEDIGIYYCLQAYSTPLTFGSGTKLEIK
notes: Hybridoma monoclonal; also called antibody 5; clone 5
B2: AB8 (antibody, V domains shown)
VH: AVQLVESGGGLVQPKESLKISCAASGFIFSNAAMYWVRQAPGKGLQWVARIRTKPKNYATYYIDSVKGRFTISRDDSKSMVYLQMDNLKTEDTAMYYCNTMGLTRAYYFDYWGQGVMVTVSS
VL: DIQMTQSPSFLSASVGDRVTINCKASQNINRYLNWYQQKLGEAPKLLIYNANSLQTGIPSRFSGSGSGTDFTLTIRSLQPEDVATYFCLQHNSWPWTFGGGTKLELK
notes: Hybridoma monoclonal; also called antibody 8; clone 8
B3: AB13 (antibody, V domains shown)
VH: EVQLVETGGGLVQPKGSLKLSCAASGFTFNAYAMNWVRQAPGKGLEWVARIRTKSNNYATYYADSVKDRFTISRDDSQTMLYLQMNNLKTEDTAMYYCVRDRATVTTGRAMDYWGQGTSVTVSS
VL: DIVMTQAAPSLPVTPGESVSISCRSSKSLLHSNGNTYLYWFLQRAGQSPQLLIYRMSNLASGVPDRFSGSGSGTAFTLRISRVEAEDVGVYYCMQHLEYPFTFGSGTKLEIK
notes: Hybridoma monoclonal; also called antibody 13; clone 13
B4: AB15 (antibody, V domains shown)
VH: EVQLVESGGGLVQPKGSLKLSCAASGFTFNTYAMNWVRQAPGKGLEWVARIRSKSNNYATYYVDSVKDRFTISRDDSQSMLYLQINNLKTEDTAMYYCVRGRELGPYSAMDYWGQGTSVTVSS
VL: B3 VL with L11V, A45P, V90L, S105G
notes: Hybridoma monoclonal; also called antibody 15; clone 15

Target: T1, human chemokine (C-C motif) receptor 8 (CCR8) (human, UniProt P51685 1-355)
T1 construct: On human peripheral blood lymphocytes / PBMC (native) or on human CCR8 GFP-transfected Ba/F3 cells; also called hCCR8; human CCR8
Test: flow cytometry blocking, PBMC CCR8+ CD4+ cells; competitor PE-AB3 (its MFI is read)
Description: (§1) For blocking studies, 100 μL of the cell suspension were incubated with 10 μg purified isotype control, AB1, AB2, AB3, AB4, AB5, AB8, AB9, AB10, AB11, AB12, AB13, AB14, AB15, and Commercial ABI antibodies, or isotype control, as blocking agents.
(§2) After incubation with the blocking agent, the cells were incubated with 0.25 μg of the indicated PE-conjugated antibody plus anti-human CD4 APC or anti-human CD3 for another 15 minutes in the dark and then washed 2 times with Cell Staining Buffer, and acquired in a FACSCanto II flow cytometer (BD Biosciences); the data was analyzed using FCS Express (De Novo Software); MFI correspond to the CCR8+ CD4+ lymphocytes or CCR8+ CD3+ lymphocytes.
(§3) Percentage original MFI was calculated by dividing the MFI of samples blocked with AB1, AB2, AB3, AB4, AB5, AB6, AB7, AB8, AB9, AB10, AB11, AB12, AB13, AB14, AB15, and Commercial ABI antibodies, by the MFI of samples blocked with the corresponding isotype control. This value was subtracted from 100 to get a blocking percentage. The formula is shown below: […]

T1 sequence (P51685 whole entry): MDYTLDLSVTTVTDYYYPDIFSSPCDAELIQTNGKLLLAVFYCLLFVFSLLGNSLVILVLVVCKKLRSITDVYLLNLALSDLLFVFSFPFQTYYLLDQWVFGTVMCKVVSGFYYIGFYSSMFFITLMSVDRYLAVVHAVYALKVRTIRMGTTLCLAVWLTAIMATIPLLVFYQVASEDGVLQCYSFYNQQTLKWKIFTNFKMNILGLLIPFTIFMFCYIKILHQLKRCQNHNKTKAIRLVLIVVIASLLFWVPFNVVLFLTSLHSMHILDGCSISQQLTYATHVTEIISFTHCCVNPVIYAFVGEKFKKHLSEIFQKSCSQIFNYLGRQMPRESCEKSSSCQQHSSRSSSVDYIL

Binder | % Blocking | MFI
B1 | 47.3% | 366
B2 | -43.3% | 994
B3 | -39.7% | 970
B4 | -61.4% | 1120

Target: T1, human chemokine (C-C motif) receptor 8 …
Test: flow cytometry blocking, PBMC CCR8+ CD4+ cells; competitor PE-AB1 (its MFI is read)
Description: as §1, §2, §3

Binder | % Blocking | MFI
B1 | 39.7% | 395
B2 | -49.5% | 980
B3 | -41.5% | 927
B4 | -51.8% | 995

Target: T1, human chemokine (C-C motif) receptor 8 …
Test: flow cytometry blocking, PBMC CCR8+ CD4+ cells; competitor PE-AB12 (its MFI is read)
Description: as §1, §2, §3

Binder | % Blocking | MFI
B1 | -17.2% | 1140
B2 | 20.8% | 773
B3 | -0.1% | 977
B4 | 34.1% | 643

Target: T1, human chemokine (C-C motif) receptor 8 …
Test: flow cytometry blocking, PBMC CCR8+ CD4+ cells; competitor PE-AB11 (its MFI is read)
Description: as §1, §2, §3

Binder | % Blocking | MFI
B1 | -11.2% | 1000
B2 | 40.4% | 537
B3 | 37.7% | 562
B4 | 20.9% | 713

Target: T1, human chemokine (C-C motif) receptor 8 …
Test: flow cytometry blocking, PBMC CCR8+ CD4+ cells; competitor PE-AB6 (its MFI is read)
Description: as §1, §2, §3

Binder | % Blocking | MFI
B1 | 35.7% | 504
B2 | -20.4% | 944
B3 | -30.7% | 1020
B4 | -35.7% | 1060

Target: T1, human chemokine (C-C motif) receptor 8 …
Test: flow cytometry blocking, PBMC CCR8+ CD4+ cells; competitor PE-AB13 (its MFI is read)
Description: as §1, §2, §3

Binder | % Blocking | MFI
B1 | -5.77% | 990
B2 | 33.4% | 623
B3 | 27.4% | 680
B4 | -3.67% | 971

Target: T1, human chemokine (C-C motif) receptor 8 …
Test: flow cytometry blocking, PBMC CCR8+ CD4+ cells; competitor PE-AB5 (its MFI is read)
Description: as §1, §2, §3

Binder | % Blocking | MFI
B1 | 44.9% | 413
B2 | -27.2% | 953
B3 | -35.7% | 1020
B4 | -29.4% | 970

Target: T1, human chemokine (C-C motif) receptor 8 …
Test: flow cytometry blocking, PBMC CCR8+ CD4+ cells; competitor PE-AB4 (its MFI is read)
Description: as §1, §2, §3

Binder | % Blocking | MFI
B1 | -6.8% | 729
B2 | -40.9% | 962
B3 | -42.8% | 975
B4 | -45.6% | 994

Target: T1, human chemokine (C-C motif) receptor 8 …
Test: flow cytometry blocking, PBMC CCR8+ CD4+ cells; competitor PE-AB2 (its MFI is read)
Description: as §1, §2, §3

Binder | % Blocking | MFI
B1 | 47.1% | 355
B2 | -42.4% | 953
B3 | -54.3% | 1030
B4 | -60.8% | 1080

Target: T1, human chemokine (C-C motif) receptor 8 …
Test: flow cytometry blocking, PBMC CCR8+ CD4+ cells; competitor PE-AB10 (its MFI is read)
Description: as §1, §2, §3

Binder | % Blocking | MFI
B1 | -7.11% | 1080
B2 | -81.3% | 1830
B3 | -36.6% | 1380
B4 | 1.55% | 992

Target: T1, human chemokine (C-C motif) receptor 8 …
Test: cell-based or functional assay

Binder | % hCCR8-Ba/F3 - THP-1 complexes
B1 | 1.51%
B2 | 1.78%
B3 | 1.16%
B4 | 1.07%

Target: T1, human chemokine (C-C motif) receptor 8 …
Test: flow cytometry blocking, PBMC CCR8+ CD4+ cells; competitor PE-AB15 (its MFI is read)
Description: as §1, §2, §3

Binder | % Blocking | MFI
B1 | -6.62% | 845
B2 | -56.6% | 1240
B3 | -15.9% | 919
B4 | 19.4% | 639

Target: T1, human chemokine (C-C motif) receptor 8 …
Test: flow cytometry blocking, PBMC CCR8+ CD4+ cells; competitor PE-ABII (its MFI is read)
Description: as §1, §2, §3

Binder | % Blocking | MFI
B1 | -8.53% | 1200
B2 | 27% | 808
B3 | 12.2% | 972
B4 | -0.05% | 1110

Target: T1, human chemokine (C-C motif) receptor 8 …
Test: flow cytometry blocking, PBMC CCR8+ CD4+ cells; competitor PE-AB14 (its MFI is read)
Description: as §1, §2, §3

Binder | % Blocking | MFI
B1 | -4.39% | 925
B2 | 6.78% | 826
B3 | -413% | 4550
B4 | 38.4% | 546
